For the assay, the target named is T1, Bovine plasma fibronectin (bovine, UniProt P07589 33-2478).
T1 construct: fibronectin, bovine, from plasma; about 0.5 MDa, two similar subunits attached through disulfide linkages; Adsorbed unmodified on a gold surface from 20 ug/mL in PBS; source: bought: Thermo Fisher Scientific
Kind of assay: dynamic single-molecule force spectroscopy (AFM); fibronectin adsorbed on a gold surface; integrin or proteoglycan tethered by PEG to the AFM tip; PBS; trigger force 500 pN, no dwell; retraction speed varied; Bell-Evans fit of rupture force against ln(loading rate), fm = 10^7 s^-1 assumed. Conditions: both partners purified.

As usually defined, the koff is the first-order rate constant of dissociation. Read a high koff as a short-lived complex.

T1 sequence (P07589 33-2478): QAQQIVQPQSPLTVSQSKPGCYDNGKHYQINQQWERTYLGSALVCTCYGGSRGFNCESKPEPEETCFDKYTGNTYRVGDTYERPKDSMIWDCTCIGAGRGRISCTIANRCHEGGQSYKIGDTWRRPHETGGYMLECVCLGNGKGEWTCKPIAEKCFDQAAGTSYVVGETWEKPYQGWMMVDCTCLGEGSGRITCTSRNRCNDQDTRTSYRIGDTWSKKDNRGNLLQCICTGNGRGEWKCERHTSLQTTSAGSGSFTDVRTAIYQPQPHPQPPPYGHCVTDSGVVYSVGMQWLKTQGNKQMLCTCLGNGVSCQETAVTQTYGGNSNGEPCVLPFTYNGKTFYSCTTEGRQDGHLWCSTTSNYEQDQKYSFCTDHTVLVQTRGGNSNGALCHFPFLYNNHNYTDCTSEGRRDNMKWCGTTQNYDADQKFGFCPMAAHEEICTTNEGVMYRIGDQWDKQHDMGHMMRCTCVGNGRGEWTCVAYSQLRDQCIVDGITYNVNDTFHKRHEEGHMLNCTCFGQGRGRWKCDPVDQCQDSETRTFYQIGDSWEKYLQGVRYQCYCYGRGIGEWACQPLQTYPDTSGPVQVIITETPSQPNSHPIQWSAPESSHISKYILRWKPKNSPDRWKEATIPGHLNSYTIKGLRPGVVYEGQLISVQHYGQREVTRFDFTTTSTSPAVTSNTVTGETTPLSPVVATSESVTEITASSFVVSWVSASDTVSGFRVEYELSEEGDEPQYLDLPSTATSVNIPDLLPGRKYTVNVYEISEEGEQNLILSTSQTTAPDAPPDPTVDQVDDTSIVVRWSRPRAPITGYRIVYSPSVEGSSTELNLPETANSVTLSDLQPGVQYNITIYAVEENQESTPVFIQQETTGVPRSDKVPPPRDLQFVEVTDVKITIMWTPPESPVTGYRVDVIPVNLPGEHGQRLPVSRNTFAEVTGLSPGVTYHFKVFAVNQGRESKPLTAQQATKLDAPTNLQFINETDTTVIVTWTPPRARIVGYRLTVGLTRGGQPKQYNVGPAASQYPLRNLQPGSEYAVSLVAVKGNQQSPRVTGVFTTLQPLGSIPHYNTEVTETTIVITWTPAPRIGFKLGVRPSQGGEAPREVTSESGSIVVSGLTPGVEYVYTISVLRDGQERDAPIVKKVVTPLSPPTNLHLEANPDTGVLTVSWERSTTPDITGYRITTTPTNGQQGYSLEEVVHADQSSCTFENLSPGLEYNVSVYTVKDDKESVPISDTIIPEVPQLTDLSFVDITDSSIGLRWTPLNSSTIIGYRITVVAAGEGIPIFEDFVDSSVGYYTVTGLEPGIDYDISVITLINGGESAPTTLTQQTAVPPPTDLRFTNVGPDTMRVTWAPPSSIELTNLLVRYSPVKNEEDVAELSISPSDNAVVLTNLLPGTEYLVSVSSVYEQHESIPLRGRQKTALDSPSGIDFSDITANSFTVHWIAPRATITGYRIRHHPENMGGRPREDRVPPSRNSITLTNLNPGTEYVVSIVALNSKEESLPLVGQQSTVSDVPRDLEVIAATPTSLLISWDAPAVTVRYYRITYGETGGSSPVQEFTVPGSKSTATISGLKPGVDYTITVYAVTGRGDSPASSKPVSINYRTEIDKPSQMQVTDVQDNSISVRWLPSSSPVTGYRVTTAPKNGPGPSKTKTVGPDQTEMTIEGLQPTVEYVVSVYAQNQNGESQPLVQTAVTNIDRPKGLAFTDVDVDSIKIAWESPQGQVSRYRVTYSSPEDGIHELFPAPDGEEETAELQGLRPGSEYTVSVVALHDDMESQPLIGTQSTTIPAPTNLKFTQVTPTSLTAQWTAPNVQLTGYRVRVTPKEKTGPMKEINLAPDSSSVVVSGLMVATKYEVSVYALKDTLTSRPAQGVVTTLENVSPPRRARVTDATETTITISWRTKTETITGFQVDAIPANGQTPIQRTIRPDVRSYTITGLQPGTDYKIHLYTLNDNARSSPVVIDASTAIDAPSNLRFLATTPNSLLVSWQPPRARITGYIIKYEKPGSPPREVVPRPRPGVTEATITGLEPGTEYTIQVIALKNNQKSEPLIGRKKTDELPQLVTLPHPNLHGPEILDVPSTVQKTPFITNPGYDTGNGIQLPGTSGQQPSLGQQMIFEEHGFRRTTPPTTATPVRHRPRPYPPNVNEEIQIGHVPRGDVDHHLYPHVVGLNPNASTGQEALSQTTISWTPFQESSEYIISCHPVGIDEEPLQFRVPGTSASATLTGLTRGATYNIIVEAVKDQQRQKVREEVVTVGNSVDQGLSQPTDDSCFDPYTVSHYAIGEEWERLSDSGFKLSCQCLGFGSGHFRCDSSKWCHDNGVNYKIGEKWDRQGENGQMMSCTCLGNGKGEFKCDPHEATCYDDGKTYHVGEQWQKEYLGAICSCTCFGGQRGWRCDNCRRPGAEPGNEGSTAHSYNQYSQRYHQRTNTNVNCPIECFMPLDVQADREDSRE

B1: Recombinant human decorin (natural protein, UniProt P07585 31-359, looked up)
chain: DEASGIGPEVPDDRDFEPSLGPVCPFRCQCHLRVVQCSDLGLDKVPKDLPPDTTLLDLQNNKITEIKDGDFKNLKNLHALILVNNKISKVSPGAFTPLVKLERLYLSKNQLKELPEKMPKTLQELRAHENEITKVRKVTFNGLNQMIVIELGTNPLKSSGIENGAFQGMKKLSYIRIADTNITSIPQGLPPSLTELHLDGNKISRVDAASLKGLNNLAKLGLSFNSISAVDNGSLANTPHLRELHLDNNKLTRVPGGLAEHKYIQVVYLHNNNISVVGSSDFCPPGHNTKKASYSGVSLFSNPVQYWEIQPSTFRCVYVRSAIQLGNYK
modifications: a single chondroitin or dermatan sulfate GAG chain attached at the N-terminus (proteoglycan); cysteines bound to the maleimide of an NHS-PEG-Mal linker on the AFM tip
notes: decorin, human, recombinant; 42-kDa core protein; No catalogue number printed; The GAG chain is told of decorin in general; source: bought: R&D Systems
For B1, the koff came out at 40 ± 4 s⁻¹.

B2: Recombinant human syndecan-4 (natural protein, UniProt P31431 19-145, looked up)
chain: ESIRETEVIDPQDLLEGRYFSGALPDDEDVVGPGQESDDFELSGSGDLDDLEDSMIGPEVVHPLVPLDNHIPERAGSGSQVPTEPKKLEENEVIPKRISPVEESEDVSNKVSMSSTVQGSNIFERTE
modifications: heparan sulfate glycosaminoglycan chains (proteoglycan); cysteines bound to the maleimide of an NHS-PEG-Mal linker on the AFM tip
notes: syndecan-4, human, recombinant; No catalogue number printed; The R&D Systems product is probably the extracellular domain (surmised); also called SDC4; source: bought: R&D Systems
Molecule B2 displayed a dissociation rate constant (koff) of 2.4 ± 0.4 s⁻¹.

(Values after publication PMC6712418, “Distinct Binding Interactions of α5β1-Integrin and Proteoglycans with Fibronectin” (Biophysical Journal, 2019).)
